The target of series [1] is T1, human RXFP4 (Homo sapiens, UniProt Q8TDU9).
T1 construct: expressed in transfected cells
To be noted: literature value; read-out: EC50 value reported in the literature, human RXFP4; cited from earlier work.

For series [2], the target named is T2, human RXFP3 (Homo sapiens, UniProt Q9NSD7).
T2 sequence (Q9NSD7 1-469): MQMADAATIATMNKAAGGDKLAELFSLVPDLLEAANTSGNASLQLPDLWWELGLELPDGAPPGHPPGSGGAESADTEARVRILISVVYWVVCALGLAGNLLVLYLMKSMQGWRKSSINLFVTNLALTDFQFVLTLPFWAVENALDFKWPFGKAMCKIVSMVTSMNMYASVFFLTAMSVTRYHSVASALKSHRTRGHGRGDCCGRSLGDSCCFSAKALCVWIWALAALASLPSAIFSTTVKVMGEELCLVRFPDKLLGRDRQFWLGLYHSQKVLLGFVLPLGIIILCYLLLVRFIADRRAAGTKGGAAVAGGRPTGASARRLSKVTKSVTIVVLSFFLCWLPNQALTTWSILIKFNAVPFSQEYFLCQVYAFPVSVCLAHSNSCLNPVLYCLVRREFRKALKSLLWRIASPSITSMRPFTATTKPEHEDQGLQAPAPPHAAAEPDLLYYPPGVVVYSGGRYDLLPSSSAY
The series is described as follows: Inhibition of forskolin-induced cAMP in human RXFP3/CHO-K1 stable line. In kind it is cell-based. To be noted: CHO-K1 stable line. An excerpt:
(§1) The RXFP cDNAs, RXFP family members, as well as species orthologs, were obtained from commercially available cDNA clones or amplified from tissue RNAs as follows. Human RXFP1: A cDNA clone was obtained from OpenBiosystems (MHS4426-99239031. Human RXFP2: A cDNA clone for transcript variant 1 was obtained from OpenBiosystems (OHS4559-99620528). Cynomolgus monkey RXFP1: The cDNA was cloned out of Mauritian cyno brain RNA by RT-PCR using the following primers: forward: 5′-[…]-3′ (SEQ ID NO: 37); reverse: 5′-[…]-3′ (SEQ ID NO: 38). Dog RXFP1: The cDNA was cloned out of dog brain RNA by RT-PCR using the following primers: forward: 5′-[…]-3′ (SEQ ID NO: 39); reverse: 5′-[…]-3′ (SEQ ID NO: 40). Rat RXFP1: The cDNA was cloned out of Sprague Dawley rat brain RNA by RT-PCR using the following primers: forward: 5′-[…]-3′ (SEQ ID NO: 41); reverse: 5′-[…]-3 (SEQ ID NO: 42)′. Human RXFP3: A Gateway entry clone in vector pDONR221 was obtained from Invitrogen (IOH28381). Human RXFP4: A Gateway entry clone in vector pDONR201 was obtained. Mouse RXFP1: A Gateway entry clone in vector pDONR223 was obtained from OpenBiosystems (OMM4760-101549000). Using standard procedures (Gateway LR recombination), the RXFP entry clones were transferred into expression vector pEF-DEST51 (Invitrogen). In contrast to the all other RXFP clones, human RXFP4 was transferred into pcDNA3.1 (Invitrogen). […]

Series [3] deals with T2, human RXFP3. Conditions: literature value; read-out: EC50 value reported in the literature, human RXFP3; cited from earlier work.
The target in series [4] is T1, human RXFP4. The series is described as follows: Inhibition of forskolin-induced cAMP in human RXFP4/CHO-K1 stable line. In kind it is cell-based. The source says:
The RXFP cDNAs, RXFP family members, as well as species orthologs, were obtained from commercially available cDNA clones or amplified from tissue RNAs as follows. Human RXFP1: A cDNA clone was obtained from OpenBiosystems (MHS4426-99239031. Human RXFP2: A cDNA clone for transcript variant 1 was obtained from OpenBiosystems (OHS4559-99620528). Cynomolgus monkey RXFP1: The cDNA was cloned out of Mauritian cyno brain RNA by RT-PCR using the following primers: forward: 5′-[…]-3′ (SEQ ID NO: 37); reverse: 5′-[…]-3′ (SEQ ID NO: 38). Dog RXFP1: The cDNA was cloned out of dog brain RNA by RT-PCR using the following primers: forward: 5′-[…]-3′ (SEQ ID NO: 39); reverse: 5′-[…]-3′ (SEQ ID NO: 40). Rat RXFP1: The cDNA was cloned out of Sprague Dawley rat brain RNA by RT-PCR using the following primers: forward: 5′-[…]-3′ (SEQ ID NO: 41); reverse: 5′-[…]-3 (SEQ ID NO: 42)′. Human RXFP3: A Gateway entry clone in vector pDONR221 was obtained from Invitrogen (IOH28381). Human RXFP4: A Gateway entry clone in vector pDONR201 was obtained. Mouse RXFP1: A Gateway entry clone in vector pDONR223 was obtained from OpenBiosystems (OMM4760-101549000). Using standard procedures (Gateway LR recombination), the RXFP entry clones were transferred into expression vector pEF-DEST51 (Invitrogen). In contrast to the all other RXFP clones, human RXFP4 was transferred into pcDNA3.1 (Invitrogen). For each construct, the RXFP cDNA, as well as its proper insertion into the expression vector, was verified by DNA sequencing.
CHO-K1 cells (ATCC #CRL-9618) were prepared for stable line generation by propagating at 37° C. with 5% CO2 in F-12 plus GlutaMAX-I medium (GIBCO #31765) supplemented with 10% fetal bovine heat-inactivated serum (Invitrogen #16140), and 1× Antibiotic-Antimycotic (GIBCO #15240-096). CHO-K1 cells were transfected with 12 μg of the appropriate expression construct plasmid using the FuGENE® 6 reagent (Roche #11814443 001) and the protocol provided by the manufacturer. One day post-transfection cells were replated into medium containing 10 μg of Blasticidin S HCl per mL (GIBCO #A11139-02). […]

A further series is described as follows: in vivo. Conditions: for Mean Conc.: male SD rats. The source says: This example evaluates the pharmacokinetic properties of wild-type (WT) Relaxin compound following a single subcutaneous injection in SD rats.
SD Rats were received from Charles River Laboratories (CRL) at approximately […] of age (approximately 280 g at study start). The animals were received having been jugular vein catheterized at CRL. Animals then acclimated for 3 days prior to being placed on study.
Animals received a single subcutaneous injection on day 1 and PK samples were collected over the subsequent 12 hours. Blood samples were taken from animals treated with WT rhRelaxin for analysis of serum concentration according to the following sampling schedule (sampling times are approximate): Day 1: pre-dose, 0.33, 0.66, 1, 1.5, 2, 3, 4, 5, 6, 9 and 12 hours post-dose.
Compound concentrations were measured using a bridging ECLA based on an assay which was developed at Ambrx. Concentrations were calculated using a standard curve generated from the corresponding dosed compound and reported in an excel spreadsheet format (see appendix). Pharmacokinetic parameters were estimated using the modeling program WinNonlin (Pharsight, version 5.1). Noncompartmental analysis for individual animal data with linear-up/log-down trapezoidal integration was used, and concentration data was uniformly weighted.
Concentration versus time curves were evaluated by non-compartmental analysis (Pharsight, version 4.1). N=5 rats per group, terminal HL, terminal half-life; Cmax, maximum serum concentration measured; Tmax, time at which Cmax occurred: AUCinf, area under the concentration-time curve for all serum sample/timepoints extrapolated to infinity; Cl, apparent total serum clearance; Vz, apparent volume of distribution during terminal phase. Numbers are mean with SD in parentheses.

For series [5] the following is noted: IV; cited from earlier work.
For series [6], the system named is primary human cardiac fibroblasts (NHCF-V). To be noted: 1 nM.
Description: NHCF-V cells were isolated from the ventricle of normal, adult heart tissue. Cells stained positive for smooth muscle α-actin and expressed ≥90% collagen I and ≤10% Von Willebrand factor VIII. Cells at passages 3 through 6 were used for the real-time quantitative reverse transcription-polymerase chain reaction (qRT-PCR) studies. Cells were cultured in FGM™-3 BulletKit™ (Cat. #: CC-4526, Lonza) containing 10% FBS complete medium. At confluence, cells were split and cultured in 6-well plates at a density of 150,000/well for 24 hr in complete medium.
Alter treatment, cells in 6-well plates were harvested or total RN A extraction and qRT-PCR analysis. Total RNA was extracted using the RNeasy Mini Kit (Cat. #: 74106, Qiagen) according to the manufacturer's protocols including the on-column removal of genomic cDNA. Real-time qRT-PCR was performed in a two-step manner; cDNA synthesis and real-time detection were carried out in a PTC-100 Thermal Cycler (MJ Research) and an ABI Prism 7700 Sequence Detection System (Applied Biosystems), respectively. TaqMan Universal PCR Master Mix (Applied Biosystems) was used in subsequent PCR reactions according to the manufacturer's protocols. All qRT-PCR reactions were performed in duplicate. […] Data were analyzed for significance by two-way ANOVA followed by a Bonferroni's multiple comparison test using GraphPad Prism Software, version 5.0.
The target of series [7] is T3, human RXFP2 (Homo sapiens, UniProt Q8WXD0). To be noted: literature value; read-out: EC50 value reported in the literature, human RXFP2; cited from earlier work.
Series [8] has as its target T3, human RXFP2. The series can be described thus: cAMP assay in human RXFP2/CHO-K1 stable line. Type of series: cell-based. Conditions: CHO-K1 stable line.
From the text: as §1
(In general: Changes in cAMP serve as a functional read-out for many G protein-coupled receptors.)

Setting [9] is: CHO-K1 stable line, inhibition of forskolin-induced cAMP.
The mark [10] stands for this setting: 0.5 mg/kg SC, SD rats, mean (SD).
[11] abbreviates: Sprague-Dawley, rat, serum, sc, 0.5 mg/kg.

Like-named read-outs stand apart in the source and are kept apart here. Some results are limits rather than exact numbers.

T1 sequence (Q8TDU9 whole entry): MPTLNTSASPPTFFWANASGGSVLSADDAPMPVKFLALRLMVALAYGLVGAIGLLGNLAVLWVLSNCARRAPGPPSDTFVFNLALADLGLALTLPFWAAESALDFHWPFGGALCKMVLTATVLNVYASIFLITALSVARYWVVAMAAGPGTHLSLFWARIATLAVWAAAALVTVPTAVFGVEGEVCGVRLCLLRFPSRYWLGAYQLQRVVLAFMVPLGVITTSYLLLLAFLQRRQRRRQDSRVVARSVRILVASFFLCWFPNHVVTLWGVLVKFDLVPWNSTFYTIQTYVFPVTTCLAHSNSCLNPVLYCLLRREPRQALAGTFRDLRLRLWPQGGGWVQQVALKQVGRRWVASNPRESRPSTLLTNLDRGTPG
T3 sequence (Q8WXD0 whole entry): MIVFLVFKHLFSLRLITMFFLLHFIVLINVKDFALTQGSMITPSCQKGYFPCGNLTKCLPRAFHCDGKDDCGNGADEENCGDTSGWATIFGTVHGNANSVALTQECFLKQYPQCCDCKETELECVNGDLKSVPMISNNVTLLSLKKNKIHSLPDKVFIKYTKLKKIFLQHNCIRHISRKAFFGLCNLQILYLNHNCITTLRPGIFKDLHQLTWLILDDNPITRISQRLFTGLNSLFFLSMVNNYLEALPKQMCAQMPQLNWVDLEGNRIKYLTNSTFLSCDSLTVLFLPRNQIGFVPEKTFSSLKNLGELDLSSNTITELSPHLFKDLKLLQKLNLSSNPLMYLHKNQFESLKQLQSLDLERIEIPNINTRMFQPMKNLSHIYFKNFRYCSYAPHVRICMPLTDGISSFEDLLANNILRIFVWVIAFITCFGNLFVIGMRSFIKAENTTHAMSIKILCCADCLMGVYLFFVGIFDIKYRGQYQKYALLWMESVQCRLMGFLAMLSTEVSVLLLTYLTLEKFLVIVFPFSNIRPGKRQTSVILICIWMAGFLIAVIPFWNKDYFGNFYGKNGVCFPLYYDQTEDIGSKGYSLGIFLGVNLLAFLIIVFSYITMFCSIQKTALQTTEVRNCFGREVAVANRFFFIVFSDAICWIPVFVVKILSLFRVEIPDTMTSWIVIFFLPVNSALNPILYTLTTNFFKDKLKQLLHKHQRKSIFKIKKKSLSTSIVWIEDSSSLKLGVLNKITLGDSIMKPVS

For the molecule “H3-RLX: H3-relaxin, the endogenous ligand for RXFP3 and RXFP4 receptors, positive control”, the EC50 was 1.1 nM in the series with human RXFP4 [1], 0.6 nM with human RXFP3 [2], 0.4 nM with human RXFP3 [3] and 2.8 ± 1.5 nM in the series with human RXFP4 [4] (setting [9]). Moreover, the “Maximal inhibition of forskolin-induced cAMP, human RXFP4 (partial agonist activity)” value with human RXFP4 [4] is recorded as about 40%.

For the molecule `CC[C@H](C)[C@@H]1NC(=O)[C@H](C)NC(=O)[C@H]([C@@H](C)CC)NC(=O)[C@H](CCC(N)=O)NC(=O)[C@H](C)NC(=O)[C@H](CCCNC(=N)N)NC(=O)[C@H](C(C)C)NC(=O)[C@H](CC(C)C)NC(=O)[C@H](CCC(=O)O)NC(=O)[C@H](CCCNC(=N)N)NC(=O)CNC(=O)[C@@H](NC(=O)[C@H](CC(C)C)NC(=O)[C@H](CCCCN)NC(=O)[C@@H](NC(=O)[C@@H](NC(=O)[C@H](CCC(=O)O)NC(=O)[C@H](CCC(=O)O)NC(=O)[C@H](CCSC)NC(=O)[C@H](Cc2c[nH]c3ccccc23)NC(=O)[C@H](CO)NC(=O)[C@@H](N)CC(=O)O)C(C)C)[C@@H](C)CC)CSSC[C@@H]2NC(=O)[C@@H](NC(=O)[C@H](CCCCN)NC(=O)[C@H](CC(N)=O)NC(=O)[C@H](C)NC(=O)[C@H](CC(C)C)NC(=O)[C@H](C)NC(=O)[C@H](CO)NC(=O)[C@H](Cc3ccc(O)cc3)NC(=O)[C@H](CC(C)C)NC(=O)[C@@H](N)CCC(N)=O)CSSC[C@H](NC(=O)CNC(=O)[C@H](C(C)C)NC(=O)[C@H](Cc3c[nH]cn3)NC2=O)C(=O)N[C@@H]([C@@H](C)O)C(=O)N[C@@H](CCCCN)C(=O)N[C@@H](CCCNC(=N)N)C(=O)N[C@@H](CO)C(=O)N[C@@H](CC(C)C)C(=O)N[C@@H](C)C(=O)N[C@@H](CCCNC(=N)N)C(=O)N[C@@H](Cc2ccccc2)C(=O)N[C@H](C(=O)O)CSSC[C@@H](C(=O)NCC(=O)N[C@@H](CCSC)C(=O)N[C@@H](CO)C(=O)N[C@H](C(=O)N[C@@H](Cc2c[nH]c3ccccc23)C(=O)N[C@@H](CO)C(=O)O)[C@@H](C)O)NC1=O` [RLX-D-WT], in the series “in vivo” (setting [10]), the “CL (mL/hr)” value is reported as 1006 (185) mL/hr and the “Vz (mL/kg)” value is 1159 (284) mL/kg. Besides, in “in vivo” (setting [11]), the AUC(0-inf) came to 509 ng·h/mL, the highest level (Cmax) was 258 ng/mL, the MRT came out at 1.56 h and the Tmax amounted to 30 min. The half-life in “in vivo” (male, SD, rat, serum, sc, 0.5 mg/kg) was 48 min. Further, the “Mean Conc.” value in “in vivo” (serum, 0.5 mg/kg SC, 6 hr) is recorded as “BQL”. Further, the “Mean Conc.” value in “in vivo” (serum, 0.5 mg/kg SC, 9 hr) was “BQL”. Further, in “in vivo” (serum, 0.5 mg/kg SC, 12 hr), the “Mean Conc.” value is “BQL”. For the same molecule, in “in vivo” (serum, 0.5 mg/kg SC, pre-dose (PD)), the “Mean Conc.” value was “BQL”. In series [5], the “half-life of intravenously administrated Relaxin 2 in humans” value is on record as “less than 10 minutes”.

For the molecule `CC[C@H](C)[C@@H]1NC(=O)[C@H](C)NC(=O)[C@H]([C@@H](C)CC)NC(=O)[C@H](CCC(N)=O)NC(=O)[C@H](C)NC(=O)[C@H](CCCNC(=N)N)NC(=O)[C@H](C(C)C)NC(=O)[C@H](CC(C)C)NC(=O)[C@H](CCC(=O)O)NC(=O)[C@H](CCCNC(=N)N)NC(=O)CNC(=O)[C@@H](NC(=O)[C@H](CC(C)C)NC(=O)[C@H](CCCCN)NC(=O)[C@@H](NC(=O)[C@@H](NC(=O)[C@H](CCC(=O)O)NC(=O)[C@H](CCC(=O)O)NC(=O)[C@H](CCSC)NC(=O)[C@H](Cc2c[nH]c3ccccc23)NC(=O)[C@H](CO)NC(=O)[C@@H](N)CC(=O)O)C(C)C)[C@@H](C)CC)CSSC[C@@H]2NC(=O)[C@@H](NC(=O)[C@H](CCCCN)NC(=O)[C@H](CC(N)=O)NC(=O)[C@H](C)NC(=O)[C@H](CC(C)C)NC(=O)[C@H](C)NC(=O)[C@H](CO)NC(=O)[C@H](Cc3ccc(O)cc3)NC(=O)[C@H](CC(C)C)NC(=O)[C@@H](N)CCC(N)=O)CSSC[C@H](NC(=O)CNC(=O)[C@H](C(C)C)NC(=O)[C@H](Cc3c[nH]cn3)NC2=O)C(=O)N[C@@H]([C@@H](C)O)C(=O)N[C@@H](CCCCN)C(=O)N[C@@H](CCCNC(=N)N)C(=O)N[C@@H](CO)C(=O)N[C@@H](CC(C)C)C(=O)N[C@@H](C)C(=O)N[C@@H](CCCNC(=N)N)C(=O)N[C@@H](Cc2ccccc2)C(=O)N[C@H](C(=O)O)CSSC[C@@H](C(=O)NCC(=O)N[C@@H](CCSC)C(=O)N[C@@H](CO)C(=O)N[C@H](C(=O)N[C@@H](Cc2c[nH]c3ccccc23)C(=O)N[C@@H](CO)C(=O)O)[C@@H](C)O)NC1=O` [WT-RLX], the “Maximal inhibition of collagen type I expression vs TGF-β only treatment” value in series [6] is recorded as at least 70%. Also, the “cAMP Assay EC50, Human RXFP3” value at human RXFP3 [2] was “essentially inactive”. Moreover, the “cAMP Assay EC50, Human RXFP4” value on human RXFP4 [4] (setting [9]) is “essentially inactive”.

B1: INSL3: endogenous ligand for RXFP2 (insulin like 3 protein), R&D Systems (protein, UniProt P51460 21-55; P51460 106-131, looked up)
Insulin-like 3 B chain: LGPAPTPEMREKLCGHHFVRALVRVCGGPRWSTEA
Insulin-like 3 A chain: AAATNPARYCCLSGCTQQDLLTLCPY
As for B1, the EC50 with human RXFP2 [7] is 0.58 nM; with human RXFP2 [8], 0.46 ± 0.04 nM.

By EC50 is commonly meant the concentration that produces a half-maximal response. For orientation: AUC(0-inf) means total exposure, with the tail of the curve extrapolated. Broadly, the Cmax is the highest concentration seen after dosing. A word on the MRT: it is the average time that molecules of a dose stay in the body. For orientation: Tmax means the time from dosing to the highest level. A word on the half-life: it is the time in which the quantity being followed falls by half.

The values above are taken from patent US11786578B2, “Modified relaxin polypeptides and their uses” (AMBRX, INC., priority 2010, dated 2023).
